# Measurements as given in US20130195874A1 (ADRENOMED, published 2013).
# Where two headings read alike, the source gives them in different places.
# B1: mouse adrenomedullin (mADM 1-50) (peptide)
# peptide: YRQSMNQGSRSNGCRFGTCTFQKLAHQIYQLTDKDKDGMAPRNKISPQGYNH
# B2: NT-H (antibody, V domains shown)
# VH: QVQLQQSGAELMKPGASVKISCKATGYTFSRYWIEWVKQRPGHGLEWIGEILPGSGSTNYNEKFKGKATITADTSSNTAYMQLSSLTSEDSAVYYCTEGYEYDGFDYWGQGTTLTVSS
# VL: DVLLSQTPLSLPVSLGDQATISCRSSQSIVYSNGNTYLEWYLQKPGQSPKLLIYRVSNRFSGVPDRFSGSGSGTDFTLKISRVEAEDLGVYYCFQGSHIPYTFGGGTKLEIK
# notes: also called NT-H antibody; antibody NT-H
# B3: human adrenomedullin (hADM 1-52) (peptide)
# peptide: YRQSMNNFQGLRSFGCRFGTCTVQKLAHQIYQFTDKDKDNVAPRSKISPQGY
# Tests used:
# [1] = molecular target: ADM (human or mouse not stated for this entry); experiment: cell-based or functional assay
# [2] = molecular target: T1, human recombinant adrenomedullin receptor (CRLR+RAMP3) (human); experiment: cell-based or functional assay
# T1 chain: B3 peptide
# [3] = molecular target: B3; experiment: cell-based or functional assay
# [4] = molecular target: B3; experiment: SPR (Biacore 2000), antibody captured via anti-mouse Fc, Adrenomedullin in solution
# Description: Reversible immobilization of the antibodies was performed using an anti-mouse Fc antibody covalently coupled in high density to a CM5 sensor surface according to the manufacturer's instructions (mouse antibody capture kit; GE Healthcare). (Lorenz et al.,” Functional Antibodies Targeting IsaA of Staphylococcus aureus Augment Host Immune Response and Open New Perspectives for Antibacterial Therapy”; Antimicrob Agents Chemother. 2011 January; 55(1): 165-173.)
# [5] = molecular target: B3; experiment: cell-based or functional assay
# [6] = molecular target: T1, human recombinant adrenomedullin …; experiment: cell-based or functional assay
molecule,measurement,setting,value
Non specific mouse IgG (antibody),Maximal inhibition of ADM bioactivity (ADM-Bioassay) (%),[1],0%
B1,EC50 (read off the curve),[2],~0.08 nM
B2,stability of hADM in human citrate plasma with NT-H against hADM alone,[3],2.3 fold
same,Kd,[4],5.9 nM
same,IC50 (read off the curve),[5],~2 µg/mL
B3,EC50 (read off the curve),[6],~1 nM
